Peptide text beside a SMILES is read from it. * marks the point of attachment. Cbz = O=C(OCc1ccccc1)*; CH2F = FC*
Tests used:
Fluc-labeled 4T1 cells = test: In vivo tumor growth from a small number of subcutaneously injected Fluc-labeled 4T1 cells; parameters: species or system mice; conditions: about 1000 subcutaneously injected Fluc-labeled 4T1 cells
Procedure: Growth of Fluc-labeled tumor cells in vivo was followed through non-invasive bioluminescence imaging using the IVIS200 instrument (Caliper Life Sciences, Hopkinton, Mass.). Mice to be imaged were injected with 150 mg/kg of D-luciferin (obtained from Caliper Life Sciences) intraperitoneally in 200 μl of PBS and then anesthetized with continuous flow of isofluorane. Imaging of the mice was carried out 10 minutes later. The time between injection and imaging was kept constant among different batches of mice.
Different approaches were used to establish tumor growth than traditionally adopted by other studies. In most of the studies, only a very small number of Fluc-labeled tumor cells (500-1000 cells each) were injected either alone or together with other unlabeled cells (either tumor cells or fibroblast cells) that were either irradiated or un-irradiated. Tumor growth in these cells was monitored through the quantification of bioluminescence signals emitted from labeled tumor cells by using the IVIS200 instrument following manufacturer's instructions.
As PGE2 had been implicated as a regulator of tumor growth, its effect on in vivo tumor growth was evaluated from a small number of Fluc-labeled 4T1 cells.

4T1Fluc cells [1] = test: Growth of Fluc-labeled tumor cells seeded onto dying feeder cells killed by cytotoxic treatment; type: cell-based, mouse; conditions: dying feeder cells killed by a treatment other than radiation
4T1Fluc cells [2] = test: Growth of 4T1Fluc tumor cells plated with lethally irradiated NIH3T3 cells, bioluminescence imaging; type: cell-based, mouse; conditions: about 1000 4T1Fluc cells plated with lethally irradiated NIH3T3 cells plus inhibitor (FIG. 4)
Procedure: FIG. 4 is a graph showing the effect of a caspase inhibitor z-VAD-fmk on 4T1Fluc tumor cell growth when plated with lethally irradiated NIH3T3 cells. About 1000 4T1Fluc cells were plated either alone, with non-irradiated NIH3T3 cells, or with lethally irradiated NIH3T3 cells plus a pan-caspase inhibitor z-VAD-fmk.
For imaging luciferase, the IVIS200 instrument from Caliper Life Sciences (Hopkinton, Mass.) was used. For tissue cultured cells, luciferase signal was imaged by adding PBS or colorless OptiMEM medium (Invitrogen, Carlsbad, Calif.) with D-luciferin (Caliper Life Sciences, Hopkinton, Mass.) at a concentration of 0.15 mg/ml. The cells were imaged at a set time point (e.g., 10 minutes) after the administration of D-luciferin. This allowed the signals from different samples to be compared. After images were taken, the manufacturer supplied software was used to process the images for quantitative data.
In order to rule out the possibility that caspase 3 mediates its growth-promoting function through a non-proteolytic mechanism, experiments were conducted using a pan-caspase inhibitor z-VAD-fmk to treat irradiated cells. […] A further, more definitive confirmation came from experiments where a dominant-negative version of caspase 3 was stably transduced into 4T1 cells. The dominant-negative caspase 3 (DN-casp3) differs with wild type caspase 3 in only one amino acid (C163A). […]

IMR90 cells = test: iPSC induction from IMR90 fibroblasts transduced with transcription factor cocktails; type: cell-based, human; conditions: for increase in frequency of OSNL-induced iPSC formation: IMR90 cells; for suppression / reduction in the frequency of iPSC induction: IMR90 cells stably transduced with the agent
From the text: The caspase reporters were transduced into human IMR90 fibroblasts via recombinant lentivirus vectors. After puromycin selection to ensure stable integration of the reporters, the iPSC reprogramming process was initiated by infecting caspase reporter-transduced IMR90 cells with recombinant lentivirus vectors carrying 4 transcription factors (Oct-4, Sox2, Nanog, and Lin28, or OSNL in abbreviation) that are known to induce iPSC formation. To avoid the use of myc, which is known to induce caspase activation and might confound the results, the OSNL protocol was chosen because it was shown not to be essential for iPSC induction.
In order to determine whether the observed caspases 3 and 8 activation had any functional relevance in iPSC induction, down-regulation of caspase activities in OSNL-transduced cells was attempted. In the initial experiment, CrmA was we stably transduced through lentiviral vectors, a cow pox virus protein known to suppress caspases 1 and 8 activities, into IMR90 cells. […] This was a very surprising result because logically one would expect that inhibiting caspase activation would lead to increased iPSC generation because of reduced cell death.
Because CrmA inhibits both caspases 1 and 8, more specific approaches were used to determine which caspase was involved. First, a siRNA-based knockdown approach was used. In this approach, lentiviral vectors encoding either caspase 1- or caspase 8-targeted shRNA was used to infect IMR90 cells. After selecting for cells with stable shRNA knockdown (as verified by western blot analysis), they were infected with OSNL lentivector cocktail.
To provide further proof that the cleavage activities of caspases 3 and 8 are necessary for iPSC formation, lentiviral vectors encoding dominant-negative forms of caspases 3 and 8 were constructed. The dominant negative form of human caspase 8 gene (casp8-DN) encodes a virtually identical protein as the wild type except a single amino acid change (i.e. C360A), which disables its catalytic proteolytic function. This dominant negative form was cloned into a recombinant lentiviral vector. Similarly, the dominant negative form of caspase 3 (Casp3-DN), which contains a single mutation (C163A) that disables its proteolytic function, was also cloned into a lentiviral vector.
When IMR90 cells stably transduced with a lentiviral vector encoding casp8-DN were infected with the OSNL lentiviral cocktail, no iPSC induction process was observed.

Molecule: CCCCC[C@H](O)/C=C/[C@H]1[C@H](O)CC(=O)[C@@H]1C/C=C\CCCC(=O)O [PGE2, prostaglandin E2]
- effect on in vivo tumor growth (Fluc-labeled 4T1 cells): significantly stimulate tumor growth

Molecule: COc1cc([C@@H]2c3cc4c(cc3[C@@H](O[C@@H]3O[C@@H]5CO[C@@H](C)O[C@H]5[C@H](O)[C@H]3O)[C@H]3COC(=O)[C@H]23)OCO4)cc(OC)c1O [etoposide]
- growth-enhancing function conferred on dying cells by the cytotoxic treatment (4T1Fluc cells [1]): engender significant growth-enhancing functions to dying cells

Molecule: COC(=O)C[C@H](NC(=O)[C@H](C)NC(=O)[C@@H](NC(=O)OCc1ccccc1)C(C)C)C(=O)CF [z-VAD-fmk] (Cbz-Val-Ala-Asp(OMe)-CH2F)
- effect on growth-promoting properties of irradiated cells towards 4T1Fluc tumor cell growth (4T1Fluc cells [2]): eliminated the growth-promoting properties of irradiated cells

Molecule: E7: human papilloma virus type 16 E7 protein, known to inhibit Rb function, co-transduced with OSNL
- increase in frequency of OSNL-induced iPSC formation (IMR90 cells): ~5 fold

B1: shRNA targeted to caspase 1: lentiviral vector-encoded shRNA against human caspase 1, Open Biosystems (nucleic acid)
DNA: TGCTGTTGACAGTGAGCGCGCAATCTTTAACATGTTGAATTAGTGAAGCCACAGATGTAATTCAACATGTTAAAGATTGCATGCCTACTGCCTCGGA
modifications: the letters are possibly those of the target site
notes: lentiviral vector-encoded shRNA against human caspase 1, Open Biosystems
- suppression / reduction in the frequency of iPSC induction (IMR90 cells; OSNL lentiviral cocktail): no significant effect

B2: dominant negative caspase 3 (C163A): dominant negative form of caspase 3 with single mutation C163A, lentiviral vector encoded (protein, UniProt P42574 1-277, looked up, variant C163A)
chain: MENTENSVDSKSIKNLEPKIIHGSESMDSGISLDNSYKMDYPEMGLCIIINNKNFHKSTGMTSRSGTDVDAANLRETFRNLKYEVRNKNDLTREEIVELMRDVSKEDHSKRSSFVCVLLSHGEEGIIFGTNGPVDLKKITNFFRGDRCRSLTGKPKLFIIQAARGTELDCGIETDSGVDDDMACHKIPVEADFLYAYSTAPGYYSWRNSKDGSWFIQSLCAMLKQYADKLEFMHILTRVNRKVATEFESFSFDATFHAKKQIPCIVSMLTKELYFYH
modifications: full-length lentiviral vector encoded
notes: dominant negative form of caspase 3 with single mutation C163A, lentiviral vector encoded
- suppression / reduction in the frequency of iPSC induction (IMR90 cells; OSNL lentiviral cocktail): about 80%

B3: shRNA targeted to Rb: lentiviral vector-encoded shRNA against human Rb, Open Biosystems (nucleic acid)
DNA: TGCTGTTGACAGTGAGCGCGGATATAGGATACATCTTTAATAGTGAAGCCACAGATGTATTAAAGATGTATCCTATATCCTTGCCTACTGCCTCGGA
modifications: the letters are possibly those of the target site
notes: lentiviral vector-encoded shRNA against human Rb, Open Biosystems
- increase in frequency of OSNL-induced iPSC formation (IMR90 cells): almost doubled

B4: Rb: human Rb gene over-expressed from a lentiviral expression vector (protein, UniProt P06400 2-928, looked up)
Retinoblastoma-associated …: PPKTPRKTAATAAAAAAEPPAPPPPPPPEEDPEQDSGPEDLPLVRLEFEETEEPDFTALCQKLKIPDHVRERAWLTWEKVSSVDGVLGGYIQKKKELWGICIFIAAVDLDEMSFTFTELQKNIEISVHKFFNLLKEIDTSTKVDNAMSRLLKKYDVLFALFSKLERTCELIYLTQPSSSISTEINSALVLKVSWITFLLAKGEVLQMEDDLVISFQLMLCVLDYFIKLSPPMLLKEPYKTAVIPINGSPRTPRRGQNRSARIAKQLENDTRIIEVLCKEHECNIDEVKNVYFKNFIPFMNSLGLVTSNGLPEVENLSKRYEEIYLKNKDLDARLFLDHDKTLQTDSIDSFETQRTPRKSNLDEEVNVIPPHTPVRTVMNTIQQLMMILNSASDQPSENLISYFNNCTVNPKESILKRVKDIGYIFKEKFAKAVGQGCVEIGSQRYKLGVRLYYRVMESMLKSEEERLSIQNFSKLLNDNIFHMSLLACALEVVMATYSRSTSQNLDSGTDLSFPWILNVLNLKAFDFYKVIESFIKAEGNLTREMIKHLERCEHRIMESLAWLSDSPLFDLIKQSKDREGPTDHLESACPLNLPLQNNHTAADMYLSPVRSPKKKGSTTRVNSTANAETQATSAFQTQKPLKSTSLSLFYKKVYRLAYLRLNTLCERLLSEHPELEHIIWTLFQHTLQNEYELMRDRHLDQIMMCSMYGICKVKNIDLKFKIIVTAYKDLPHAVQETFKRVLIKEEEYDSIIVFYNSVFMQRLKTNILQYASTRPPTLSPIPHIPRSPYKFPSSPLRIPGGNIYISPLKSPYKISEGLPTPTKMTPRSRILVSIGESFGTSEKFQKINQMVCNSDRVLKRSAEGSNPPKPLKKLRFDIEGSDEADGSKHLPGESKFQQKLAEMTSTRTRMQKQKMNDSMDTSNKEEK
modifications: lentiviral expression
notes: human Rb gene over-expressed from a lentiviral expression vector
- suppression / reduction in the frequency of iPSC induction (IMR90 cells; OSNL lentiviral cocktail): about 50%

B5: casp8-DN: dominant negative form of human caspase 8 (C360A), lentiviral vector encoded (protein, UniProt Q14790 1-479, looked up, variant C360A)
chain: MDFSRNLYDIGEQLDSEDLASLKFLSLDYIPQRKQEPIKDALMLFQRLQEKRMLEESNLSFLKELLFRINRLDLLITYLNTRKEEMERELQTPGRAQISAYRVMLYQISEEVSRSELRSFKFLLQEEISKCKLDDDMNLLDIFIEMEKRVILGEGKLDILKRVCAQINKSLLKIINDYEEFSKERSSSLEGSPDEFSNGEELCGVMTISDSPREQDSESQTLDKVYQMKSKPRGYCLIINNHNFAKAREKVPKLHSIRDRNGTHLDAGALTTTFEELHFEIKPHDDCTVEQIYEILKIYQLMDHSNMDCFICCILSHGDKGIIYGTDGQEAPIYELTSQFTGLKCPSLAGKPKVFFIQAAQGDNYQKGIPVETDSEEQPYLEMDLSSPQTRYIPDEADFLLGMATVNNCVSYRNPAEGTWYIQSLCQSLRERCPRGDDILTILTEVNYEVSNKDDKKNMGKQMPQPTFTLRKKLVFPSD
modifications: full-length lentiviral vector encoded
notes: dominant negative form of human caspase 8 (C360A), lentiviral vector encoded
- iPSC clones observed (IMR90 cells; OSNL lentiviral cocktail, after 25 days of culture, wild type IMR90 around 550 clones/5×10^5 cells): No iPSC clones were observed
- suppression of iPSC induction (IMR90 cells; transduced together with OSKM): over 95%

From patent US20110165143A1, “MODULATION OF CASPASES AND THERAPEUTICAL APPLICATIONS” (The Regents of the University of Colorado, a body corporate, priority 2010, published 2011)
